Experimental findings from publication PMC9758175 are described below.

Assay [1] deals with WspR-His (Lysobacter enzymogenes OH11). The assay is described as follows: MST; 100 nM WspR-His labelled with RED-Tris-NTA, titrated with MBP-RpfG or its variant; 50 mM Tris pH 7.5, 150 mM NaCl, 10 mM MgCl2, 0.05% Tween 20; 25 °C; Monolith NT.115.
Assay [2] deals with WspR-His~P (Lysobacter enzymogenes OH11). The assay is described as above.
The target in assay [3] is WspR-His (Lysobacter enzymogenes OH11). The assay is described as follows: MST; as the WspR-RpfG MST assay, with 10 μM DSF added.
The target is the same in assay [4]. The assay is described as follows: MST; as the WspR-RpfG MST assay, with 10 μM c-di-GMP added.
Assay [5] has the same target.

Sequence of WspR-His (Lysobacter enzymogenes OH11) (main, as listed by the source): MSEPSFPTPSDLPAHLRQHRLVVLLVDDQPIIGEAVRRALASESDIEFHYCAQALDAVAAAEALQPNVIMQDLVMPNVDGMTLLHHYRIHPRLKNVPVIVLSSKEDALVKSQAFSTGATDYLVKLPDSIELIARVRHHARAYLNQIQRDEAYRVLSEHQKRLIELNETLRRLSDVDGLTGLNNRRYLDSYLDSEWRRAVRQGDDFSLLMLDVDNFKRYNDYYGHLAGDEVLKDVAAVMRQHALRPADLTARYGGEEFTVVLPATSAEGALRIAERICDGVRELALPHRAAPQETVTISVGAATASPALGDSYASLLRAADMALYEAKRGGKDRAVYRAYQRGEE
Sequence of WspR-His~P (Lysobacter enzymogenes OH11) (main, as listed by the source): as above

The term Kd denotes the constant that tells how readily two partners part at equilibrium. Turning to MBP-RpfG (enzyme), the Kd was 0.15 µM in assay [1], 0.93 µM in assay [2], 0.25 µM in assay [3] and 0.32 µM in assay [4]. The substance also came in with a reduction of c-di-GMP production by WspR-His from GTP (HPLC peak area) on addition of MBP-RpfG in assay [5] of 82%.
For MBP-RpfG^H190A (enzyme), the Kd in assay [1] came to 0.2 µM; in assay [2], 0.56 µM. In assay [5], this substance displayed a reduction of c-di-GMP production by WspR-His from GTP (HPLC peak area) on addition of MBP-RpfG^H190A of 34%.
Turning to phosphorylated RpfG (RpfG~P) (enzyme), the equilibrium dissociation constant (Kd) in assay [1] came to 0.24 µM. This counts as sub-micromolar.
